From patent US20190316150A1

Key:
Assay in all cases: cell-based or functional assay
[1] = target: T1, GFP-OsJAZ^23 (Oryza sativa)
T1 sequence: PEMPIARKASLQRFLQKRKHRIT

[2] = target: OsJAZ^33-p53 (Oryza sativa; human) (UniProt P04637)
[3] = target: T2, NLS-GFP-OsJAZ^33 (SV40; Oryza sativa)
T2 sequence: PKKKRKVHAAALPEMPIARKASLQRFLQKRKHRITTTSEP

[4] = target: T3, GFP-AtJAZ^FL (Arabidopsis thaliana) (UniProt Q9LMA8)
T3 sequence: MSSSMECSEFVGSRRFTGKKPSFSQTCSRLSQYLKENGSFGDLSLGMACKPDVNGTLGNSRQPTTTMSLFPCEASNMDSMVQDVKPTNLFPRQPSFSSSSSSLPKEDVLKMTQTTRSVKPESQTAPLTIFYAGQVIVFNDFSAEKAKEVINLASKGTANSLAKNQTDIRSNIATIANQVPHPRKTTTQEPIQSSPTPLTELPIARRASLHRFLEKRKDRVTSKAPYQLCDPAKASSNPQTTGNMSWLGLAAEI

B1: OsTIR1^F-box-OsCOI1B^LRR (receptor)
chain: MYPYDVPDYATYFPEEVVEHIFSFLPAQRDRNTVSLVCKVWYEIERLSRKHVTVPFCYAASPAHLLARFPRLESLAVKGKPRAAMYGLIPEDWGAYARPWVAELAAPLECLKALHLRRMVVTDDDLAALVRARGHMLQELKLDKCSGFSTDALRLVARSCRSLRTLFLEECSIADNGTEWLHDLAVNNPVLETLNFHMTELTVVPADLELLAKKCKSLISLKISDCDFSDLIGFFRMAASLQEFAGGAFIEQGELTKYGNVKFPSRLCSLGLTYMGTNEMPIIFPFSALLKKLDLQYTFLTTEDHCQLIAKCPNLLVLAVRNVIGDRGLGVVADTCKKLQRLRVERGDDDPGLQEEQGGVSQVGLTTVAVGCRELEYIAAYVSDITNGALESIGTFCKNLCDFRLVLLDREERITDLPLDNGVRALLRGCTKLRRFALYLRPGGLSDTGLGYIGQYSGIIQYMLLGNVGETDDGLIRFALGCENLRKLELRSCCFSEQALARAIRSMPSLRYVWVQGYKASKTGHDLMLMARPFWNIEFTPPSSENANRMREDGEPCVDSQAQILAYYSLAGKRSDCPRSVVPLYPA
coronatine-dependent GFP degradation, flow cytometry, HEK-293T, pJAZ version 6-Os23 [1]: 90%
coronatine-dependent degradation, western blot quantification, H9 hESCs, 50 µM coronatine 1 day [2]: 90%
coronatine-induced GFP degradation, flow cytometry, HEK-293T, pJAZ version 7 [3]: > 95%
coronatine-induced degradation, flow cytometry, several cell types carrying pJAZ and pRAIDRS [3]: 90 to 99%
coronatine-induced GFP degradation, flow cytometry, HEK-293T, pJAZ version 6-AtFL [4]: 95%
